This series can be described thus: soluble on expression in E. coli; label from the status in PepcDB or PDB records.
With “MNHTSGITPLHPSIFHNILGLVALQTTRVGGVSASPLDSLNLGTHVGDDPERVRENERRLCAFLEISCESIVTTGQVHGTEIAVVTGPGKLDGYDALITTVRGLFVGILTADCYPILIYDRRTRACGAAHAGWQGTAGRIAEKTVNAMHNSFGTRPEDCLAWVGTGISGECYEIGGEVAARFSSRYLKPSPSGEGRQLLDLSAANRDQLIEAGIPPSQVQCSELCSYRDADRFFSYRRDNGKTGRMLALIGLRHSD”, the “soluble on expression in E. coli” value is “soluble”.

“MAQLYFYYSAMNAGKSTSLLQSSYNYRERGMNTLVMTASIDDRYGKGKVASRIGIESDAQVFSSHDNLIEMITAAHQENHLSCVLVDECQFLSKEQVKQLTYIVDKIDIPVLCYGLRTDFQGELFSGSHYLLAWADKLVELKTICHCGRKANMVVRLDGEGKVMREGEQVAIGGNESYESVCRKHFREFIWD”: the “soluble on expression in E. coli” value is “soluble”.

Turning to “MGSDKIHHHHHHMTTINFLGGCREVGRSAVMVDGIMIDYGVKPSDPPEFPLNGLSPRAVILSHGHLDHIGVAPNLMYYDPEVILTPPSHELSMILLRDSMKIMHPPPFTKRELRQFESNIREVEYEEPITVGDYEVEFFNAGHIPGSASIHMRGDVNILYSGDIRLEETRLLEGANTDYPETDILIVESTYFGTEHPDRKELERAFVESVIDTLDMGGHAIIPAFAVGRTQEVLMILERYGITPYVDGMGKEVAQVIQRHPDFIRSPKELKRAVRNAIPVEWRQRERVLEEPSAVVTTAGMLNGGPAMFYISRLYNDEKSKILLTGYQVEGTNGDMALKTGMLNLGTRVVKLKMGVEQYDFSAHADDRQLKEYVKRVVDRGAEVVFTIHGEETEAFAEWIKDNIGVEAYAPKNGEIYVI”, the “soluble on expression in E. coli” value was “not soluble”.

With “SPSTNRKYPPLPVDKLEEEINRRMADDNKLFREEFNALPACPIQATCEAASKEENKEKNRYVNILPYDHSRVHLTPVEGVPDSDYINASFINGYQEKNKFIAAQGPKEETVNDFWRMIWEQNTATIVMVTNLKERKECKCAQYWPDQGCWTYGNVRVSVEDVTVLVDYTVRKFCIQQVGDVTNRKPQRLITQFHFTSWPDFGVPFTPIGMLKFLKKVKACNPQYAGAIVVHCSAGVGRTGTFVVIDAMLDMMHSERKVDVYGFVSRIRAQRCQMVQTDMQYVFIYQALLEHYLYGDTELEVT”, the “soluble on expression in E. coli” value is listed as “soluble”.

Turning to “SLYIEMVDETGQVSKEMLQQTQEILEFAAQKLGKEDKEMAVTFVTNERSHELNLEYRDTDRPTDVISLEYKPELEIAFDEEDLLENPELAEMMSEFDAYIGELFISIDKAHEQAEEYGHSFEREMGFLAVHGFLHINGYDHYTPEEEAEMFGLQEEILTAYGLTRQ”, the “soluble on expression in E. coli” value is “soluble”.

As for “SSLPLNAIEPCVICQGRPKNGCIVHGKTGHLMACFTCAKKLKKRNKPCPVCRQPIQMIVLTYFP”, the “soluble on expression in E. coli” value is recorded as “soluble”.

For the sequence “GDFAYTVGFNMSKNWNKVTNLGANDPIIESPWIKKVGYAIGTFYGYRSDGLLTQEDIDTGNYITDGLVPQAGDIKYVDLDGDGKLTDKDRTYIGCDVPDITYGVNLNLRYKGFELSMFGQGVTGTKVNFSMENAWAFSDYASPRKYHLKRWTVDNPNPNAAYPRIYPRTSKHSTYNQYFSDYWLFNADYFRIKNITFGYSFQKPVLQKLSLEALKLYVAAENPFTIRADHRMEDFDPETASGRGVNTRGTSSIAFGVNLTF”, the “soluble on expression in E. coli” value is given as “not soluble”.

Take “MSLQCDDCKTKLMPLVAHEVDHIDNRRDVAGDLDDSPDNLRAVNRDCHRRITMRQIAEAGAVGTMAPVWMPITQKPLTVVVGPPSAGKSTWVKAAAKASDLVIDLDILAPTVIGKPMWIADSRERSLVIRERNSLVAEYMRGKTAHPHCFLIDTAGSFKRRKFWLDRGADVVLLDTDKDICRARIRQCSARPESTRAGRLAAVDRWEEGHHHHHH”: the “soluble on expression in E. coli” value was “not soluble”.

For “MGSDKIHHHHHHMKIAIITDGSVEMGMGHVYRTLSLANELRKFNVNEIIFFTKSDEDVIKKIEENGFKVIKCSDNNDILKNIKNIKPDVVIIDDLGIEEDFAKNIRELCKKLIFFDNPNPSSNKYADIVVNAIVGSELKNRKYFDEENKTLYFYGPKYLILRNEFYKVKKEMLSRSKNKETKNILIAFGGSDPSNLTCKVLEELLSKDRDFNINVVLGPKFQYEDELNNLLKRYSKSDKIKIYKNIDNMAELMKDNDLIITSPGMTMFEALFLGIPVVVLYQNELQRECYDDYLKKISKTHLNPLKEGYFIDAEHTDLHIGKGKFEIIEAITNIYNCKKIGEDSKIIIRQITDNDLELLMAWRSNPLIYKFFYIQKEPLKWEEHYSWWMSRENRVDWIILLRENNTIRKVGSVNVSQLNTDNPEIGILIGEFFLWGKHIGRHSVSLVLKWLKNIGYKKAHARILENNIRSIKLFESLGFKKTKKGRENEWIYEVNL”, the “soluble on expression in E. coli” value is on record as “not soluble”.

As to “MSLAKPIEAHTVSPVNPNAQQTTKTVMNWLAHLPNRTENRVLSGAFGGYSHDTFSMAEADRIRSATGQSPAIYGCDYARGWLETANIEDSIDVSCNGDLMSYWKNGGIPQISLHLANPAFQSGHFKTPITNDQYKKILDSSTVEGKRLNAMLSKIADGLQELENQGVPVLFRPLHEMNGEWFWWGLTSYNQKDNERISLYKQLYKKIYHYMTDTRGLDHLIWVYSPDANRDFKTDFYPGASYVDIVGLDAYFQDAYSINGYDQLTALNKPFAFTEVGPQTANGSFDYSLFINAIKQKYPKTIYFLAWNDEWSAAVNKGASALYHDSWTLNKGEIWNGDSLTPIVEEGHHHHHH”, the “soluble on expression in E. coli” value was “soluble”.

For “MGSDKIHHHHHHMAKKKTKFMCQECGYESAKWMGKCPGCQSWNSMVEEFTEVKAKSSRSYVTSGAGIAKPQPITKVEREQEPRIDTSMKELNRVLGGGIVPGSLVLVGGDPGIGKSTLLLQLSARLADLKQRVLYISGEESVKQTKIRSDRLGVLSDHLYVLAETDMEKIEQAIGEVDPTLVIIDSIQTVYQDEITSAPGSVAQVRECTASFMRIAKTTGVAIFIVGHVTKQGAIAGPKLLEHMVDSVLYFEGERHHTYRILRAVKNRFGSTNEMGIFEMKESGLEEVANPSEIFLEDRSSGVAGSTVVASMEGTRPVLVELQALISPTSFGNPRRMATGVDHNRISLLMAVLEKRVGMLLQNQDAYVNVAGGVRLDEPAIDLGIAVSIASSFRNQHTNPHEVVIGEIGLTGEVRRVSRIDQRVNEAAKLGFKRVIIPDKNLGGWTIPSTIEVIGVSTVQDALEVTLGR”, the “soluble on expression in E. coli” value was “not soluble”.

On to “MNRTLPLLPALALGVLLGLPASGQATCYRVTSVGSETTTSNTQIRPGEGTAGSWTGACDTCNGSLGLPSVVNVSDESFQPYPTLIASAVAPLTQYGATGGYDPERVFFRCSAGDAVYEMFSTNGDDLYSGYYTGADTVGNDIGLQDAYRTAWPNVLLRLTNVETGETITPIWKERQLSGLDIDSRGFQLVKAKNLAAVRAELYSAPLEAIRYYSPTILSQPYSYTQPAAYIAIKGPGLTAPTVGQAHVGGNWGGWYSNWPGAIGLYRYVTLKRYPTCAVMTVTPHVQFPSITLAEIDSGGVREAPFELTFKCQSGMTNGTGAGATALGIRVSSGALAASPALGLVNASGGLSYLLSDRYGEPGIARGVGIRIYRDGTPMTLLANENSAGGSNAEATGWYPAIGGATQANGGSGGIDLYRETFRARLEKLALGSQPGVTAGRVEATAQVVIRVQ”, for which the “soluble on expression in E. coli” value is “not soluble”.

Take “GPGSMKERRSVSQSRTSRTGQLRNGGFRESRFRVALMSRCARPSSSGTSHMFAPSSLPSVGQPSYESGVSSMPNISFPTCNDGALSPGDSMYPPSLPQRAKNKRTGQKDKQKRQSTLGSVDSEEEKRSFLASAAAFRRHRRYNNPFTAYCLASDPYDRPREIERQRQFMSCYKRIACRFVAGGKNALDKPTRYMLGDCVARLYKAVAADWPEADPMVVSSAEDLIVVFMNLDAVRNPVTALRYMNALLKRCDVVRAFDLKKVPEGWDVVTEDGHLMYTFRPPWVGERRFLPDQVAVKKSRGR”: the “soluble on expression in E. coli” value is reported as “not soluble”.

“MGSDKIHHHHHHMLIISDAHANIHPLKYVIQREKFDKIVFCGDAVDYGPNPGETLDLLKENADVMVSGNHDYAAAYSVDCRCGEENHELSVFTRENITLKKLGKNDISFLRSLPNRMDMEIDGMKFQVMHGSPRDELYGYMYPWSVQDHLRSMLGSPLDPANYVVGHTHYQFLIRYAGNLVINPGSIGQPRDNPMPSYAVYDSSRNSVEFPRFDYDRSKLKEDIRSIISDQEILSGLYRLFSL”: the “soluble on expression in E. coli” value is reported as “not soluble”.

Consider “MAHHHHHHMPGPGLLPDGWFREESTMWPGQAQGLKVEKVLYDQPTEFQHLTVFESDPSGPWGTVMTLDGAIQLTDYDEFVYHEMLANLSLACHHKPERVLVIGGGDGGVVREVLRHKSEKDGVVQSVELVDIDGAVMQQSKKHFPQVACGFANPCVTATVGDGAAFVRNVPDSVYDVIIIDTTDPKGPASELFGADFYTNVLRILRPGGVVCNQGESVWLHRPLIEKMMGFLKKDIGFATVKYAMIYIPTYPCGSIGTLVCAKSADTDVTVPMRPVESLGFADQLKYYSSDMHKAAFVLPRFAAHLNE”, for which the “soluble on expression in E. coli” value is “soluble”.

For “GMTSRSPFESFVWQSEIFNCQSNDIDAFYAQLAEEVNRLGLKKNTLGSVDSFAINLYQSASQRSDLPSLLISSGFHGEEAAGPWGMLHFLRGLQPALFERVNLSLLPLVNPTGFKAGHRFNRFGENPNRGFTLENGKPTPNEHTSLEGKLLLEHAQLLCAASRDGILTCHEDVLMNETYVYSFEPTQTPGRFSLGLRDALGQYFKLAKDGFIDECPVTDGVIFNHFDTSFEAFLVRSGAKLAACSETPGQEDFDRRVQANSAAMGQFIAHCAPIL”, the “soluble on expression in E. coli” value is recorded as “soluble”.

With “MSTLAPLFLAKHPDGEERQVIRPNVWETSCADTETLSIFHIEGMADPDLLCRVLNLFAVQSFTPERVRADREDHKIRLLLTFPGLSQHRASVIAEKLRSLVTVLAVRLEFSPHAGKVRPSVSEPLLASVV”, the “soluble on expression in E. coli” value is recorded as “not soluble”.

Take “MRLFFSLLILLSFFARATEPVQVFTDDLGRKVTVPAHPKRIVSLHDLDITIPLIELGVPPVASHGRTRPDGSHFIRSGALLTGVDFDNSSIAFIGTADIDIEAIVAAKPDLIITEPTRNTPIERLEKIAPTVSIDHLKGGAPEIYRKLAELTGTQSQLAILERRYQAQINALKATLDSQKITVSVIQANQGKINVMHSYHSLGRVLRDAGFRFPPLIESIPEGGRMDVSAERLPELDADFVFATWRGDTGGKPQDELAAMEKVMPGWCQFLTACRSGRYVLISREEAISNSFASLGLMAAQIQSQIAGRPLPEAK”: the “soluble on expression in E. coli” value is recorded as “soluble”.

On to “MVLPGNCSTSAALCMQFLTQLASVAIDQAYQPPQQPAYNPHEKLFVSYRSVPPPGSSPSSAAVPIRFSSYSSVGSNIRGLNSPTLHPGSIEPPLTPGNYRLYSMRFCPYAQRVLIYLAKKNIPVEVVNVNPDRSPNWYLPKSPIGRVPALEINGKVVWESNVIVEYLDELFPTNTILPRDAYEKAHQKILVERLSPIMNALFEFYGSSNNPQAQRQNDMNVHSALRNSENLLRDTFYGGRQPGYADYLMWPFLERLQLLTMSPNSQFRYFPGLHYPKIGAYIARMQNQPEVLGFCKHDFFLKKTGEKIW”, for which the “soluble on expression in E. coli” value is given as “not soluble”.

These data come from the DeepSol protein solubility set.
